Assays:
[1] = test system: O75899; assay: single-molecule photobleaching step counting (TIRFM); GBR1-EGFP co-expressed with unlabeled GBR2 in HEK293 cells; EGFP spots on the cell membrane; one bleaching step = one heterodimer, two steps = tetramer of two heterodimers (heterodimers to tetramer); resting state; also after 1 mM GABA …; settings: other: single-molecule photobleaching step counting (TIRFM)
[2] = target: the molecule itself; assay: single-molecule photobleaching step counting (TIRFM); GBR2-EGFP expressed alone at low expression level in HEK293 cells; EGFP spots on the cell membrane; monomer to homodimer

Molecule | percent of spots with one-step bleaching (single heterodimer) [1] | percent of spots with two-step bleaching (tetramer of two heterodimers) [1] | stoichiometry N [2]
GABAB receptor heterodimer GBR1-EGFP/GBR2 | about 50% population | about 30% receptors | –
GBR2-EGFP (receptor, UniProt O75899 42-941, looked up, GABAB receptor subunit 2 (GBR2, GABAB2); source: HEK293, transfected, expressed alone at low expression level, on cells) WARGAPRPPPSSPPLSIMGLMPLTKEVAKGSIGRGVLPAVELAIEQIRNESLLRPYFLDLRLYDTECDNAKGLKAFYDAIKYGPNHLMVFGGVCPSVTSIIAESLQGWNLVQLSFAATTPVLADKKKYPYFFRTVPSDNAVNPAILKLLKHYQWKRVGTLTQDVQRFSEVRNDLTGVLYGEDIEISDTESFSNDPCTSVKKLKGNDVRIILGQFDQNMAAKVFCCAYEENMYGSKYQWIIPGWYEPSWWEQVHTEANSSRCLRKNLLAAMEGYIGVDFEPLSSKQIKTISGKTPQQYEREYNNKRSGVGPSKFHGYAYDGIWVIAKTLQRAMETLHASSRHQRIQDFNYTDHTLGRIILNAMNETNFFGVTGQVVFRNGERMGTIKFTQFQDSREVKVGEYNAVADTLEIINDTIRFQGSEPPKDKTIILEQLRKISLPLYSILSALTILGMIMASAFLFFNIKNRNQKLIKMSSPYMNNLIILGGMLSYASIFLFGLDGSFVSEKTFETLCTVRTWILTVGYTTAFGAMFAKTWRVHAIFKNVKMKKKIIKDQKLLVIVGGMLLIDLCILICWQAVDPLRRTVEKYSMEPDPAGRDISIRPLLEHCENTHMTIWLGIVYAYKGLLMLFGCFLAWETRNVSIPALNDSKYIGMSVYNVGIMCIIGAAVSFLTRDQPNVQFCIVALVIIFCSTITLCLVFVPKLITLRTNPDAATQNRRFQFTQNQKKEDSKTSTSVTSVNQASTSRLEGLQSENHRLRMKITELDKDLEEVTMQLQDTPEKTTYIKQNHYQELNDILNLGNFTESTDGGKAILKNHLDQNPQLQWNTTEPSRTCKDPIEDINSPEHIQRRLSLQLPILHHAYLPSIGGVDASCVSPCVSPTASPRHRHVPPSFRVMVSGL | – | – | 2

— PMC8807474, “Single-Molecule Fluorescence Imaging Reveals GABAB Receptor Aggregation State Changes” (Frontiers in Chemistry, 2021)
